Measurements taken from publication PMC2711571 (The Journal of Cell Biology, 2009).
Where “and” joins values, the source holds several entries; their conditions need not be identical. Equal values may be shown once.

B1: Internalin B (ligand)
chain: AKVQAETITVPTPIKQIFSDDAFAETIKDNLKKKSVTDAVTQNELNSIDQIIANNSDIKSVQGIQYLPNVTKLFLNGNKLTDIKPLANLKNLGWLFLDENKVKDLSSLKDLKKLKSLSLEHNGISDINGLVHLPQLESLYLGNNKITDITVLSRLTKLDTLSLEDNQISDIVPLAGLTKLQNLYLSKNHISDLRALAGLKNLDVLELFSQECLNKPINHQSNLVVPNTVKNTDGSLVTPEIISDDGDYEKPNVKWHLPEFTNEVSFIFYQPVTIGKAKARFHGRVTQPLKEVYTVSYDVDGTVIKTKVEAGTRITAPKPPTKQGYVFKGWYTEKNGGHEWNFNTDYMSGNDFTLYAVFKAETTEKAVNLTRYVKYIRGNAGIYKLPREDNSLKQGTLASHRCKALTVDREARNGGKLWYRLKNIGWTKAENLSLDRYDKMEYDKGVTAYARVRNASGNSVWTKPYNTAGAKHVNKLSVYQGKNMRILREAKTPITTWYQFSIGGKVIGWVDTRALNTFYKQSMEKPTRLTRYVSANKAGESYYKVPVADNPVKRGTLAKYKNQKLIVDCQATIEGQLWYRIRTSSTFIGWTKAANLRAQK

Key:
[1] = target: Rat tail collagen type I, neutralized fibrillar (rat) (UniProt P02454); assay: ELISA
[2] = target: Human Met-Fc chimera (human) (UniProt P08581); assay: ELISA
[3] = target: Met receptor (human (endogenous in HeLa)) (UniProt P08581); assay: cross-linking + co-IP
[4] = target: T1, Human Met-Fc chimera (human, UniProt P08581 25-932, fully glycosylated); assay: ELISA
[5] = target: T1, Human Met-Fc chimera; assay: ELISA; remark: listed apart in the source

T1 sequence (P08581 25-932, change not shown): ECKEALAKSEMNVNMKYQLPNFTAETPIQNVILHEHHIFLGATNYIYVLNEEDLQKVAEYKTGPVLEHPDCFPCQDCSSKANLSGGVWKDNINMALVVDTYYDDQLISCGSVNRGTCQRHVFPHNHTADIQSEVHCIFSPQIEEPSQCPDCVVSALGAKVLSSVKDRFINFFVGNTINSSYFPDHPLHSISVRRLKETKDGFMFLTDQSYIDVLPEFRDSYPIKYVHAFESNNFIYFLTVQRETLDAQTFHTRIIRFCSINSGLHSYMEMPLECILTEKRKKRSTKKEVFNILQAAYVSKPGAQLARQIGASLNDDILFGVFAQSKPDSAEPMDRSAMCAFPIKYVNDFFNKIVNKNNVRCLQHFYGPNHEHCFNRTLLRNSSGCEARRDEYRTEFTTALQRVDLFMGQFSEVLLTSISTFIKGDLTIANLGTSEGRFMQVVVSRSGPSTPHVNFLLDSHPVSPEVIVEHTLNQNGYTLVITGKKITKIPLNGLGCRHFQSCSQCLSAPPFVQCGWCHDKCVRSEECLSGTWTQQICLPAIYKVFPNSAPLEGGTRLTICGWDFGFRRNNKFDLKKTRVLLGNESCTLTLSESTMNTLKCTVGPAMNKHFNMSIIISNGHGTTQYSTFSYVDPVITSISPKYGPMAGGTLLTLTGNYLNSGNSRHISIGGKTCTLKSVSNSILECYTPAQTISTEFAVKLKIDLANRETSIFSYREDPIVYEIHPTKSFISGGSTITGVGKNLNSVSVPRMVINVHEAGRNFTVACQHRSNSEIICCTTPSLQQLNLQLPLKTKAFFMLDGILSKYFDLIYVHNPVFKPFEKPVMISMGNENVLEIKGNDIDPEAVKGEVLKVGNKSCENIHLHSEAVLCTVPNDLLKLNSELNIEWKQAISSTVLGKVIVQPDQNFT
Rat tail collagen type I, neutralized fibrillar (rat), sequence (P02454 152-1207, chain 1 of 2): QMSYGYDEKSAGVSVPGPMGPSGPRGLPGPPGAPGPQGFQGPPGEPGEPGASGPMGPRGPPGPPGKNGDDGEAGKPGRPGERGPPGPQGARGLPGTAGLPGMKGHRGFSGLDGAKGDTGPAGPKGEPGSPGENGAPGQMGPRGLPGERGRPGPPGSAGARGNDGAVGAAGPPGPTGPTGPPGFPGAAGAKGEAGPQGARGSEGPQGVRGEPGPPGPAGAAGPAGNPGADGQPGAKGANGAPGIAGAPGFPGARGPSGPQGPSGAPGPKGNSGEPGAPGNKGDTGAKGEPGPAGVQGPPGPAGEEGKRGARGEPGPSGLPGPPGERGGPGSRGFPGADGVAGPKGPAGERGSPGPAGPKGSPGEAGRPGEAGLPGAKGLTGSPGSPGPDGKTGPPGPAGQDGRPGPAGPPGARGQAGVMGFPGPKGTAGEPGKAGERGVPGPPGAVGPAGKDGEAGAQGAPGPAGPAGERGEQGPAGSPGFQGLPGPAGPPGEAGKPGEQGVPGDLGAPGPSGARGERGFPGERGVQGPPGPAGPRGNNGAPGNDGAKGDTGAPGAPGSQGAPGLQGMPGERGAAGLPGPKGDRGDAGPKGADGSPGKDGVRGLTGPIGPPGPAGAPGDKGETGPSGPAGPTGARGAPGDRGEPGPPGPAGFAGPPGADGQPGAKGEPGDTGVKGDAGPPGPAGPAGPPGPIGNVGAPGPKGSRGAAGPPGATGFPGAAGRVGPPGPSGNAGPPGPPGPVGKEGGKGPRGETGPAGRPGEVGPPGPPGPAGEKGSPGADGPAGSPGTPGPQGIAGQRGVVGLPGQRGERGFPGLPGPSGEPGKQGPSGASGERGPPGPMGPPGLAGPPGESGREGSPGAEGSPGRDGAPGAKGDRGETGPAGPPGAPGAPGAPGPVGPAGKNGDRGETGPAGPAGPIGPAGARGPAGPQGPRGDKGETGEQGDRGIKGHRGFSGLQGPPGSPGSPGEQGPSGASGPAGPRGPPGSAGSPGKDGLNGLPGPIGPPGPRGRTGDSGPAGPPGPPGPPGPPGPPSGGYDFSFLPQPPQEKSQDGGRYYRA
Rat tail collagen type I, neutralized fibrillar (rat), sequence (P02466 86-1125, chain 2 of 2, further chain): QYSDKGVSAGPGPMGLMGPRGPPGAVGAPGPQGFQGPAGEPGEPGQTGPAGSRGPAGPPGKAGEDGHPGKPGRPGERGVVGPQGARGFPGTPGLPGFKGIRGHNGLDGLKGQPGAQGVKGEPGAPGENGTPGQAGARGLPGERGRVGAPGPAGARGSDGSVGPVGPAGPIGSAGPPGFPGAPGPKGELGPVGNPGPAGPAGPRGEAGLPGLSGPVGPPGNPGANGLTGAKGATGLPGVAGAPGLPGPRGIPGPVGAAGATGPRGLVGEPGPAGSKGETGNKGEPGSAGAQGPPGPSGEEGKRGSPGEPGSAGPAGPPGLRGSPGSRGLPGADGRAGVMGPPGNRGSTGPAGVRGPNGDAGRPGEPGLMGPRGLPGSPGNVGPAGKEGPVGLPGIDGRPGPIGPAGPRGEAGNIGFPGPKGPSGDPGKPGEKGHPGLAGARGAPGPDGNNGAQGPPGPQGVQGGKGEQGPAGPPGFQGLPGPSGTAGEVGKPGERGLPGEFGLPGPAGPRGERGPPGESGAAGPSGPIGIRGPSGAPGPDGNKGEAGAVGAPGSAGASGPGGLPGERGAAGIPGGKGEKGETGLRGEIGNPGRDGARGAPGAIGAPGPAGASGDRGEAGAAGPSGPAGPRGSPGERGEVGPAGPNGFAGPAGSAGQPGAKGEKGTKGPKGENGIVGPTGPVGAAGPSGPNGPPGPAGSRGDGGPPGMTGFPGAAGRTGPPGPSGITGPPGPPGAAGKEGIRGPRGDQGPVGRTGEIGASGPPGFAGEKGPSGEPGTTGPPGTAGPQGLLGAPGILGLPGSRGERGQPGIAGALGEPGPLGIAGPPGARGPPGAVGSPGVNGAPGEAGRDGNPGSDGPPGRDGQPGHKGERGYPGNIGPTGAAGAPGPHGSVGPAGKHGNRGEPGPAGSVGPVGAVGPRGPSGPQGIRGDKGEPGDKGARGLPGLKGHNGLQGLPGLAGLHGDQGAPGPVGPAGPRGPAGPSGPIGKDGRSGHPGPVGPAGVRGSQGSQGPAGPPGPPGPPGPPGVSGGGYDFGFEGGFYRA
Met receptor (human (endogenous in HeLa)), sequence (P08581 25-1390): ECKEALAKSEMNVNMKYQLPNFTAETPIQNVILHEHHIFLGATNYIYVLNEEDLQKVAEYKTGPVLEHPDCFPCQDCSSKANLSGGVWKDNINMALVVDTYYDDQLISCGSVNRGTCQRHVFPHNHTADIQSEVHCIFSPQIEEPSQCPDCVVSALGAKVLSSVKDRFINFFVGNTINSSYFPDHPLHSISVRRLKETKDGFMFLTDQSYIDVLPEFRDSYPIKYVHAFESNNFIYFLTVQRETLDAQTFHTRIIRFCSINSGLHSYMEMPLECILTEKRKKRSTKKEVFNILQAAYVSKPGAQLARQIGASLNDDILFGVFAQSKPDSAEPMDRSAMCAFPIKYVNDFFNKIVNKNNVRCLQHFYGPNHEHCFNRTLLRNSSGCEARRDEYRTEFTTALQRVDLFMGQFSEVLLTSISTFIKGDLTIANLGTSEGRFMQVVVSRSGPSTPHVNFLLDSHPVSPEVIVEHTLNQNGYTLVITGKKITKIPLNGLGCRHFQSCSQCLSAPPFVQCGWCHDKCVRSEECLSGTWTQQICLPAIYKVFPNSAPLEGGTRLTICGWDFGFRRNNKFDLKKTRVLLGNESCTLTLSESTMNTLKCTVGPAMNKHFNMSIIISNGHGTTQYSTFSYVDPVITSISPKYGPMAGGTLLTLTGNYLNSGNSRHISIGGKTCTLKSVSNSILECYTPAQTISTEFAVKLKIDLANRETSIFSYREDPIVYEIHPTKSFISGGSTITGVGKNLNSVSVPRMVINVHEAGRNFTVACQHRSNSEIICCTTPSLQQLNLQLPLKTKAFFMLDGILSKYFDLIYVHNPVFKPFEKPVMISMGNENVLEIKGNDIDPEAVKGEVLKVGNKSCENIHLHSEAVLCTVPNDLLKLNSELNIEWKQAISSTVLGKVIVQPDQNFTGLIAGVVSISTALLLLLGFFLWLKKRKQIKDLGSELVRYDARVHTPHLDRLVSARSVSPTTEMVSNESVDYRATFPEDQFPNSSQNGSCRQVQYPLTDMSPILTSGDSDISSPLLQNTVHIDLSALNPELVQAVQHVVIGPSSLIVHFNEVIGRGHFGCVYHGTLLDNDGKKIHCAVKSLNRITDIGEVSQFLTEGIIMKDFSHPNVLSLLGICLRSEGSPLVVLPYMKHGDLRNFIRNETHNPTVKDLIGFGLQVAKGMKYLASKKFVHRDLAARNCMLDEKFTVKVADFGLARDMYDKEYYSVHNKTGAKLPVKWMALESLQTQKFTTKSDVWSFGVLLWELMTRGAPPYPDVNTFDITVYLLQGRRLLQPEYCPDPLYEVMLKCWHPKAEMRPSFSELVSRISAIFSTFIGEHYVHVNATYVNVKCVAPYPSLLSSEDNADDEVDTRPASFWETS
Human Met-Fc chimera (human), sequence (P08581 25-932, change not shown): as the sequence (P08581 25-932, change not shown) above

Row | Molecule | Kd [1] | Kd [2] | stoichiometry N [3] | IC50 [4] | Kd [5]
1 | Decorin protein core (from UniProt P07585 31-359) (ligand) | 0.28 nM | 1.5 nM | 1 | – | –
2 | B1 | – | – | – | ~120 nM and ~180 nM | 2.16 nM
